Reference: publication PMC11532494 (Nature Communications, 2024)
Values joined by “and” are separate entries in the source; they are usually repeats but may differ in a detail not shown here. Identical values can stand only once. Like-named read-outs stand apart in the source and are kept apart here. No end group written: not given here. *: point of attachment. AMC = Cc1cc(=O)oc2cc(N*)ccc12

Legend:
VsHdaH (1b) = assay type: biochemical, Vibrio sp.
RsPrpH (1b) = experiment: Substrate screening assay (acyl-peptide-AMC); assay type: biochemical, Rhizorhabdus sp.
RwDmhA (1b) = RwDmhA (1b) (Rhizorhabdus wittichii, UniProt A0A067XIQ6); assay type: biochemical
KpHdaH (1b) = KpHdaH (1b) (Klebsiella pneumoniae, UniProt A0A377Z5F6); assay type: biochemical
BsAcuC (2c) = biological target: T1, BsAcuC (2c) (Bacillus subtilis, UniProt P39067); experiment: Substrate screening assay (acyl-peptide-AMC); assay type: biochemical
T1 construct: made in house; host or cells: E. coli BL21 (DE3)
T1 sequence (P39067 1-387): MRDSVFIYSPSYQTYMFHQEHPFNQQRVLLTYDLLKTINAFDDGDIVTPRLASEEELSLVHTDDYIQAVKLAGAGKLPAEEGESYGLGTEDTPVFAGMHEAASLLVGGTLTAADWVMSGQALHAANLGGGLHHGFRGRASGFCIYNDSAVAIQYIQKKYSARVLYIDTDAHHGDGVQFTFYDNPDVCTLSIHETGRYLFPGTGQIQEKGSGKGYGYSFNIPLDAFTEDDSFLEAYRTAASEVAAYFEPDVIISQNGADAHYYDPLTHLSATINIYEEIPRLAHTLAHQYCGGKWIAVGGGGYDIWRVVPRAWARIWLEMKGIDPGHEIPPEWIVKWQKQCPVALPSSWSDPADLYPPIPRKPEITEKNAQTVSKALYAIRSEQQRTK
Method: (§1) Experiments with SIRT2 and SIRT5 were supplemented with NAD^+ (500 µM). Thereafter, a solution of trypsin (25 µL, 5.0 mg/mL; final concentration of 2.5 mg/mL) was added, and the development of the assay was allowed to proceed for 90 min at room temperature before fluorescence analysis. […] To this end, a single category is given to all conversions >48% on the heatmap. […] For the H4-derived peptide LGKbio no positive control was available.

VcHdaH (5b) = assay type: biochemical, Vibrio cholerae
PsApaH (4) = PsApaH (4) (Pseudomonas sp. M30-35, UniProt A0A1Y0KY79); assay type: biochemical
Method: as §1

LcApaH (3) = LcApaH (3) (Legionella cherrii, UniProt A0A0W0SGS1); assay type: biochemical
LpApaH (3) = LpApaH (3) (Legionella pneumophila, UniProt A0A2S6EWV0); assay type: biochemical
Controls [1] = assay type: biochemical
Controls [2] = assay type: biochemical; remark: listed apart in the source
[3] = substrate screening, mean of two measurements
[4] = substrate screening, measurement 1 of two
[5] = substrate screening, measurement 2 of two
[6] = two measurements, single values

Substance: QPKKoct (QPKK-{AMC}; not fully specified (residue 4); printed as QPKKoct; also: octanoyl-lysine (which Lys not given here); UniProt P04637 317-320, looked up, fragment)
- RFU means, VsHdaH (1b) (VsHdaH (1b); means of two measurements): 110.5 RFU
- RFU*2 means, VsHdaH (1b) (VsHdaH (1b); means of two measurements): 221 RFU*2
- [AMC] (nM), VsHdaH (1b), means (VsHdaH (1b); [3]): 107.91 nM
- [AMC] (nM), VsHdaH (1b) (VsHdaH (1b); [4]): 121.09 nM
- [AMC] (nM), VsHdaH (1b) (VsHdaH (1b); [5]): 94.73 nM
- RFU*2, VsHdaH (1b) (VsHdaH (1b); [6]): 248 RFU*2 and 194 RFU*2
- RFU, VsHdaH (1b) (VsHdaH (1b); [6]): 124 RFU and 97 RFU
- RFU means, RsPrpH (1b) (RsPrpH (1b); means of two measurements): 38 RFU
- RFU*2 means, RsPrpH (1b) (RsPrpH (1b); means of two measurements): 76 RFU*2
- [AMC] (nM), RsPrpH (1b), means (RsPrpH (1b); [3]): 37.11 nM
- [AMC] (nM), RsPrpH (1b) (RsPrpH (1b); [4]): 3.91 nM
- [AMC] (nM), RsPrpH (1b) (RsPrpH (1b); [5]): 70.31 nM
- RFU means, RwDmhA (1b) (RwDmhA (1b); means of two measurements): 64 RFU
- RFU*2 means, RwDmhA (1b) (RwDmhA (1b); means of two measurements): 128 RFU*2
- [AMC] (nM), RwDmhA (1b), means (RwDmhA (1b); [3]): 62.50 nM
- [AMC] (nM), RwDmhA (1b) (RwDmhA (1b); [4]): 51.76 nM
- [AMC] (nM), RwDmhA (1b) (RwDmhA (1b); [5]): 73.24 nM
- RFU*2, RwDmhA (1b) (RwDmhA (1b); [6]): 106 RFU*2 and 150 RFU*2
- RFU, RwDmhA (1b) (RwDmhA (1b); [6]): 53 RFU and 75 RFU
- RFU means, KpHdaH (1b) (KpHdaH (1b); means of two measurements): -28 RFU
- RFU*2 means, KpHdaH (1b) (KpHdaH (1b); means of two measurements): -56 RFU*2
- [AMC] (nM), KpHdaH (1b), means (KpHdaH (1b); [3]): -27.34 nM
- [AMC] (nM), KpHdaH (1b) (KpHdaH (1b); [4]): -12.70 nM
- [AMC] (nM), KpHdaH (1b) (KpHdaH (1b); [5]): -41.99 nM
- RFU means, BsAcuC (2c) (BsAcuC (2c); means of two measurements): 2011.5 RFU
- RFU*2 means, BsAcuC (2c) (BsAcuC (2c); means of two measurements): 4023 RFU*2
- [AMC] (nM), BsAcuC (2c), means (BsAcuC (2c); [3]): 1964.36 nM
- RFU*2, BsAcuC (2c) (BsAcuC (2c); [6]): 4802 RFU*2 and 3244 RFU*2
- RFU means, VcHdaH (5b) (VcHdaH (5b); means of two measurements): 71 RFU
- RFU*2 means, VcHdaH (5b) (VcHdaH (5b); means of two measurements): 142 RFU*2
- [AMC] (nM), VcHdaH (5b), means (VcHdaH (5b); [3]): 69.34 nM
- RFU*2, VcHdaH (5b) (VcHdaH (5b); [6]): 138 RFU*2 and 146 RFU*2
- RFU, VcHdaH (5b) (VcHdaH (5b); [6]): 69 RFU and 73 RFU
- RFU means, PsApaH (4) (PsApaH (4); means of two measurements): 80.5 RFU
- RFU*2 means, PsApaH (4) (PsApaH (4); means of two measurements): 161 RFU*2
- [AMC] (nM), PsApaH (4), means (PsApaH (4); [3]): 78.61 nM
- [AMC] (nM), PsApaH (4) (PsApaH (4); [4]): 85.94 nM
- [AMC] (nM), PsApaH (4) (PsApaH (4); [5]): 71.29 nM
- RFU*2, PsApaH (4) (PsApaH (4); [6]): 146 RFU*2 and 176 RFU*2
- RFU, PsApaH (4) (PsApaH (4); [6]): 73 RFU and 88 RFU
- RFU means, LcApaH (3) (LcApaH (3)): 186 RFU
- RFU*2 means, LcApaH (3) (LcApaH (3)): 372 RFU*2
- [AMC] (nM), LcApaH (3), means (LcApaH (3)): 181.64 nM
- RFU means, LpApaH (3) (LpApaH (3)): 63 RFU
- RFU*2, LpApaH (3) (LpApaH (3)): 110 RFU*2 and 142 RFU*2
- RFU*2 means, LpApaH (3) (LpApaH (3)): 126 RFU*2
- RFU, LpApaH (3) (LpApaH (3)): 55 RFU and 71 RFU
- [AMC] (nM), LpApaH (3) (LpApaH (3)): 53.71 nM and 69.34 nM
- [AMC] (nM), LpApaH (3), means (LpApaH (3)): 61.52 nM
- RFU means, controls (Controls [1]): 8340.5 RFU
- RFU*2, controls (Controls [1]): 13158 RFU*2 and 20204 RFU*2
- RFU*2 means, controls (Controls [1]): 16681 RFU*2
- RFU, controls (Controls [1]): 6579 RFU and 10102 RFU
- [AMC] (nM), controls, means (Controls [2]): 8145.02 nM
